Reference: the supplement of paper PMC9112550, “Optimization of the antimicrobial peptide Bac7 by deep mutational scanning” (BMC Biology, 2022)

These sequences were tested on Escherichia coli TOP10 (assay: shrunken log2 fold change of peptide-encoding DNA abundance (4.5 h post-induction vs induction); higher = less antimicrobial activity (less host growth inhibition)). Conditions: time post-induction: 4.5 h; library: site-saturation at positions 5, 18, 19, 20.
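Note: peptides expressed intracellularly from a pBAD plasmid library in pooled LB shake-flask culture, induced with 0.3% L-arabinose, DNA abundance read by NGS, three biological replicates, DESeq2 with apeglm shrinkage.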

Row | Sequence | shrunken log2 fold change
1 | RRIRARPPRLPRPRPRPKFCPRP | 0.22
2 | RRIRKRPPRLPRPRPRPCIFPRP | -0.0101
3 | RRIRKRPPRLPRPRPRPKFLPRP | 0.119
4 | RRIRMRPPRLPRPRPRPVATPRP | 1.64
5 | RRIRFRPPRLPRPRPRPQQIPRP | -0.54
6 | RRIRARPPRLPRPRPRPNFRPRP | 0.376
7 | RRIRSRPPRLPRPRPRPVLCPRP | -0.00306
8 | RRIRCRPPRLPRPRPRPYWIPRP | -1.17
9 | RRIRGRPPRLPRPRPRPWIPPRP | -0.429
10 | RRIRLRPPRLPRPRPRPNQHPRP | -0.222
11 | RRIRLRPPRLPRPRPRPMYGPRP | -0.179
12 | RRIRQRPPRLPRPRPRPTPRPRP | 0.843
13 | RRIRDRPPRLPRPRPRPRPRPRP | 0.983
14 | RRIRNRPPRLPRPRPRPGDQPRP | 0.0802
15 | RRIRVRPPRLPRPRPRPPGQPRP | 0.266
16 | RRIRTRPPRLPRPRPRPIIIPRP | -0.219
17 | RRIRMRPPRLPRPRPRPCGSPRP | -0.0626
18 | RRIRSRPPRLPRPRPRPAWLPRP | 0.534
19 | RRIRDRPPRLPRPRPRPSHKPRP | -0.373
20 | RRIRGRPPRLPRPRPRPMEMPRP | 0.756

Row | Sequence | shrunken log2 fold change
21 | RRIRDRPPRLPRPRPRPQYWPRP | -0.695
22 | RRIRKRPPRLPRPRPRPFAEPRP | 0.266
23 | RRIRTRPPRLPRPRPRPNRWPRP | -0.0997
24 | RRIRHRPPRLPRPRPRPDAAPRP | 0.453
25 | RRIRGRPPRLPRPRPRPSVWPRP | 0.622
26 | RRIRARPPRLPRPRPRPMRHPRP | 0.38
27 | RRIRDRPPRLPRPRPRPQKFPRP | -0.0467
28 | RRIRYRPPRLPRPRPRPIMGPRP | -0.0134
29 | RRIRIRPPRLPRPRPRPIAGPRP | -0.017
30 | RRIRLRPPRLPRPRPRPTQYPRP | -0.696
31 | RRIRMRPPRLPRPRPRPWMMPRP | 0.024
32 | RRIRKRPPRLPRPRPRPLEDPRP | -0.0129
33 | RRIRKRPPRLPRPRPRPCNNPRP | -0.474
34 | RRIRCRPPRLPRPRPRPYMWPRP | -0.913
35 | RRIRIRPPRLPRPRPRPHAYPRP | -0.549
36 | RRIRRRPPRLPRPRPRPYYSPRP | -0.532
37 | RRIRSRPPRLPRPRPRPQHVPRP | -0.17
38 | RRIRHRPPRLPRPRPRPCALPRP | -0.339
39 | RRIRGRPPRLPRPRPRPYCFPRP | 0.0329
40 | RRIRARPPRLPRPRPRPINDPRP | 0.00287

Row | Sequence | shrunken log2 fold change
41 | RRIRGRPPRLPRPRPRPGGAPRP | 1
42 | RRIRVRPPRLPRPRPRPKKWPRP | -0.00649
43 | RRIRQRPPRLPRPRPRPHEDPRP | 0.0107
44 | RRIRPRPPRLPRPRPRPQFSPRP | -0.184
45 | RRIRRRPPRLPRPRPRPCLYPRP | -0.117
46 | RRIRWRPPRLPRPRPRPIHWPRP | 0.202
47 | RRIRWRPPRLPRPRPRPMLLPRP | 0.259
48 | RRIRERPPRLPRPRPRPRDSPRP | 0.0154
49 | RRIRDRPPRLPRPRPRPTCHPRP | 0.0627
50 | RRIRGRPPRLPRPRPRPKKEPRP | 0.042
51 | RRIRWRPPRLPRPRPRPMVHPRP | 0.0275
52 | RRIRFRPPRLPRPRPRPGCDPRP | 0.106
53 | RRIRVRPPRLPRPRPRPLCDPRP | -0.108
54 | RRIRTRPPRLPRPRPRPDQHPRP | -0.626
55 | RRIRPRPPRLPRPRPRPLYHPRP | -0.514
56 | RRIRHRPPRLPRPRPRPKELPRP | -0.00676
57 | RRIRFRPPRLPRPRPRPCLTPRP | -0.134
58 | RRIRFRPPRLPRPRPRPQCNPRP | -0.531
59 | RRIRHRPPRLPRPRPRPTEPPRP | 0.0484
60 | RRIRSRPPRLPRPRPRPPLPPRP | 0.688
